Assay results reported in patent publication US20130011436A1.

Target: CXCR4 on murine 4T1 breast carcinoma cells (murine) (UniProt P70658)
Assay: cell-based or functional assay

Chain of UniProt P70658 (P70658 whole entry): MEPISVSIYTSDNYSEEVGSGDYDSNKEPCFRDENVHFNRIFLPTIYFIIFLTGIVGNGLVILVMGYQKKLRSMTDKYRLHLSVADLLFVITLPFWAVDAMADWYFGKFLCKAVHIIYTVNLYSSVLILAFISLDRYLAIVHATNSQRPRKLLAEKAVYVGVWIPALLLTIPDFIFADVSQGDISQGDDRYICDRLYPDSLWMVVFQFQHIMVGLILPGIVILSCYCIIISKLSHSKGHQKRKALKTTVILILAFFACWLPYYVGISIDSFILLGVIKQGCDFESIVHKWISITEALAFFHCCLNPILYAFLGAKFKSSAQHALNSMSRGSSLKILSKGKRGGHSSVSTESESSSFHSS

Q: Which inhibition of migration of 4T1 cells toward SDF1 (1,000 ng/ml), transwell assay, antagonist at 100 µg/ml does the source give for CTCE-9908 peptide here?
A: > 80%
